For 94 variants, protein stability index results are on record in the supplement of paper PMC10567573.

To fix the notation:
B1: FAM164A (parent)
chain: YDPDYIQCPYCQRRFNENAADRHI
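Also: lentivirally expressed fusions sorted by FACS into six bins by GFP to DsRed ratio, PSI derived from sequencing read proportions per bin multiplied by bin number.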

The variants in this data set derive from B1. The experiment in a line: protein stability index of a GFP-peptide fusion (GPS, HEK-293T) (PSI 1-6); higher = more stable. To be noted: c terminus: a fixed tail appended.
Regarding YDPDYIQCPVCQRRFNENAADRHI, the protein stability index was 3.49. Turning to YDPDYIQCPQCQRRFNENAADRHI, the protein stability index came out at 3.45. For the variant YDPDYIQCPWCQRRFNENAADRHI, the protein stability index came out at 3.89.

With YDPDYIQCPNCQRRFNENAADRHI, the protein stability index came to 3.91. As for YDPDYIQCPSCQRRFNENAADRHI, the protein stability index was determined as 3.9.

For the variant YDPDYIQCPYCQRRYNENAADRHI, the protein stability index amounted to 3.47. YDPDYIQCPYCQRRKNENAADRHI: the protein stability index worked out at 3.54. YDPDYIQCPYCQRRTNENAADRHI: the protein stability index stood at 2.48.

YDPDYIQCPYCQRRENENAADRHI: the protein stability index was 3.59. For YDPDYIQCPYCQRRHNENAADRHI, the protein stability index amounted to 3.14. YDPDYIQCPYCQRRQNENAADRHI: the protein stability index worked out at 3.4. As to YDPDYIQCPYCQRRNNENAADRHI, the protein stability index turned out to be 3.18. As for YDPDYIQCPYCQRRWNENAADRHI, the protein stability index amounted to 4. On to YDPDYIQCPYCQRRCNENAADRHI, for which the protein stability index turned out to be 3.34. Under YDPDYIQCPYCQRRMNENAADRHI stands 3.66. As to YDPDYIQCPYCQRDFNENAADRHI, the protein stability index was found to be 3.08. In the case of YDPDYIQCPYCQRAFNENAADRHI, the protein stability index was 4.16.

With YDPDYIQCPYCQRPFNENAADRHI, the protein stability index stood at 3.9.

In the case of YDPDYIQCPYCQRVFNENAADRHI, the protein stability index worked out at 4.67. On to YDPDYIQCPYCQREFNENAADRHI, for which the protein stability index amounted to 3.88.

As to YDPDYIQCPYCQRNFNENAADRHI, the protein stability index was determined as 2.68. Regarding YDPDYIQCPYCQRGFNENAADRHI, the protein stability index was 2.81. Regarding YDPDYIQCPYCQRCFNENAADRHI, the protein stability index turned out to be 4.41.

Turning to YDPDYIQCPYCQRWFNENAADRHI, the protein stability index is 5.12. Regarding YDPDYIQCPYCQRFFNENAADRHI, the protein stability index came to 5.24. For YVPDYIQCPYCQRRFNENAADRHI, the protein stability index came out at 2.37. Under YRPDYIQCPYCQRRFNENAADRHI stands 4.07. Under YCPDYIQCPYCQRRFNENAADRHI stands 2.33; under YQPDYIQCPYCQRRFNENAADRHI, 3.55; under YIPDYIQCPYCQRRFNENAADRHI, 2.38. YSPDYIQCPYCQRRFNENAADRHI: the protein stability index is 2.59. On to YAPDYIQCPYCQRRFNENAADRHI, for which the protein stability index amounted to 2.46. On to YDPDYIQCPYCQRRFNENAADRHT, for which the protein stability index was 4.18. For the variant YDPDYIQCPYCQRRFNENAADRHA, the protein stability index was found to be 4.74. As for YDPDYIQCPYCQRRFNENAADRHQ, the protein stability index was determined as 4.57. Regarding YDPDYIQCPYCQRRFNENAADRHM, the protein stability index turned out to be 4.03. For YDPDYIQCPYCQRRFNENAADRHK, the protein stability index was determined as 4.29.

Regarding YDPDYIQCPYCQRRFNENAADRHV, the protein stability index is 4.6. Under YDPDYIQCPYCQRRFNENAADRHH stands 4.4; under YDPDYIQCPYCQRRFNENAADRHS, 4.56; under YDPDYIQCPYCQRRFNENAADRHN, 4.47. As for YDPDYIQCPYDQRRFNENAADRHI, the protein stability index came out at 3.81.

As for YDPDYIQCPYQQRRFNENAADRHI, the protein stability index amounted to 3.47. For YDPDYIQCPYFQRRFNENAADRHI, the protein stability index is 3.45. To YDPDYIQCPYWQRRFNENAADRHI belongs 3.42; to YDPDYIQCPYHQRRFNENAADRHI, 3.69; to YDPDYIQCPYRQRRFNENAADRHI, 3.06.

Consider YDPDYIQCPYIQRRFNENAADRHI, for which the protein stability index came to 3.22. For YDPDYIQCPYTQRRFNENAADRHI, the protein stability index was determined as 3.72. With YDPLYIQCPYCQRRFNENAADRHI, the protein stability index worked out at 3.59. Take YDPHYIQCPYCQRRFNENAADRHI: the protein stability index stood at 4.5. Under YDPPYIQCPYCQRRFNENAADRHI stands 4.08; under YDPEYIQCPYCQRRFNENAADRHI, 4.21; under YDPKYIQCPYCQRRFNENAADRHI, 4.11.

As for YDPSYIQCPYCQRRFNENAADRHI, the protein stability index stood at 4.49. To YDPWYIQCPYCQRRFNENAADRHI belongs 3.5. In the case of YDVDYIQCPYCQRRFNENAADRHI, the protein stability index amounted to 4.25. Under YDSDYIQCPYCQRRFNENAADRHI stands 4.39.

With YDKDYIQCPYCQRRFNENAADRHI, the protein stability index turned out to be 4.63. For the variant YDHDYIQCPYCQRRFNENAADRHI, the protein stability index came out at 3.81. Under YDRDYIQCPYCQRRFNENAADRHI stands 4.49. Regarding YDCDYIQCPYCQRRFNENAADRHI, the protein stability index worked out at 3.49. Under YDPDYIQCPYCQRRFNENKADRHI stands 4; under YDPDYIQCPYCQRRFNENGADRHI, 4.41; under YDPDYIQCPYCQRRFNENEADRHI, 4.61. For the variant YDPDYIQCPYCQRRFNENWADRHI, the protein stability index was found to be 3.66. Under YDPDYIQCPYCQRRFNENRADRHI stands 4.11; under YDPDYIQCPYCQRRFNENFADRHI, 4.24; under YDPDYIQCPYCQRRFNENCADRHI, 4.42. To YDPDYIQCPYCQRRFNENPADRHI belongs 4.03; to YDPDVIQCPYCQRRFNENAADRHI, 4.41; to YDPDLIQCPYCQRRFNENAADRHI, 4.25. On to YDPDKIQCPYCQRRFNENAADRHI, for which the protein stability index was determined as 3.21. As for YDPDQIQCPYCQRRFNENAADRHI, the protein stability index was found to be 4.12. In the case of YDPDSIQCPYCQRRFNENAADRHI, the protein stability index was 4.37.

With YDPDYIQCPYCQRRFNENAAHRHI, the protein stability index amounted to 3.93. For the variant YDPDYIQCPYCQRRFNENAAFRHI, the protein stability index was 3.72. On to YDPDYIQCPYCQRRFNENAANRHI, for which the protein stability index was 4.72.

Consider YDPDYIQCPYCQRRFNENAAPRHI, for which the protein stability index came to 3.92. Consider YDPDYIQCPYCQRRFNENAACRHI, for which the protein stability index was found to be 4.8. With YDPDYIQCPYCQRRFNENAALRHI, the protein stability index was 4.55. On to YDPDYIQCPYCQRRFNENAAKRHI, for which the protein stability index came out at 4.46.

On to NDPDYIQCPYCQRRFNENAADRHI, for which the protein stability index is 4.45. Under RDPDYIQCPYCQRRFNENAADRHI stands 3.98; under DDPDYIQCPYCQRRFNENAADRHI, 4.86. To HDPDYIQCPYCQRRFNENAADRHI belongs 4.29; to CDPDYIQCPYCQRRFNENAADRHI, 3.69.

In the case of KDPDYIQCPYCQRRFNENAADRHI, the protein stability index worked out at 4.41. ADPDYIQCPYCQRRFNENAADRHI: the protein stability index was 4.73.

For YDPDYICCPYCQRRFNENAADRHI, the protein stability index amounted to 3.57. In the case of YDPDYITCPYCQRRFNENAADRHI, the protein stability index came to 4.57. To YDPDYIYCPYCQRRFNENAADRHI belongs 3.77; to YDPDYINCPYCQRRFNENAADRHI, 2.89; to YDPDYIHCPYCQRRFNENAADRHI, 2.76.
